From the NTF2 design screens of Basanta et al. (2020)

Test: protease stability score; higher = more stable; yeast display proteolysis, trypsin and chymotrypsin;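 further: relative to predicted unfolded state with 0 unfolded-like and 1 meaning tenfold more protease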

Sequence | protease stability score
DEDEERVKLASELYTHIMHTGDERLTKEFFDPRVRSDINGRELHGREIITEMVSRYKNMTLHSHREEVQGEWAFIDGRMEYGDKEWKIHIITLKVNGRWVVTEIEFH | 0.778
DEDEERVREFFELFFKALFTGDEEELKRLLDPHVKLIINGREFVGREQMTRLLNEIRVSWTELRIRRIERQGDKVIFDAEVHVERHQGDYHEQKTIKVILYMRKVDGRWLLESIEIR | 2.38
DEDEESATKFTRELIHHTRTGDEESLKELADPNVRIDFNGVEIHGMEWWLKLHVHLGAKIILRLKDIETIGDKVHIHGEREIRVNGKNIRTKIRILVEKVDGRWVLKHEELG | 1.21
DEDEESLRRMTTLLLYLWLTGDFEEMQKLADPRVKLDAENRNVHGREEWYEFMKRLGVKHSEVHHLRVINGRIDVETRVDVDGQEVRIRFIIDKVDGRWFLRRVYVH | 1.85
DEDEESNKLFEDLLSEAIRTGDWRMLRHLADPNVRVDINGKKLVGWEELMRFMHELRIDRHHSRIHDSDSQGDKMHIDVRLEIDGNINGRKHRFRIESELILVKVNGRWLLEESRVG | 1.67
DEDEESSESFYRLWVELFETGNFEILERLFDPHVRIKIGDKHIHGMEEHIRESFHIIERFKGVQIRVDEVRLFDGRMDVHGELIINGQSVRMRIIVRKVNGRWHLTEMILD | 1.48
DEDEESSKLAIEFLLRALITGDEKTMSELLDPNARLVVNGVEIVGMHVIVRHFIEMRLERIHVRIRSWTVFDGRLLNDTELHRHINVNGVEEDRSNRVELFVKKVDGKWKLEMIIIN | 2.63
DEDEESTKHALELWEESMETGDEHDLKHLVDPHARLEVGDKTYHGREAVHVLFRRIDHLHDIRIDHVEVQGNKIHMDVTLNYYFNGRVEEEKFEILILKINGRWRIKSMRIK | 1.78
DEDEETAIRVVKEFWKAVMTGDERHLKEYFDPHTRLDVDGQDQHGREDLTEFMFHMRVERTTIHNWRLQGDYVYLHVHVVGQINGKSKETEFYIVVFKINGRWSIHHITIR | 1.33
DEDEETAREMVEHFLQILLTGDEHNLSRLMDPNARVQIGDKTLHGRVNFVKWIEELGLDRVDVQLRRSRVIGNKIHIHGEERFNGVTMESHVDAVKINGQWHIERVEHR | 0.629
DEDEETITRTLEFQRESLRTGDWKFIHRLFDPDARFLINGRDRHGRDLLIDILRKLGVEKINLHVHRMSYVGDKMRVETELVVGDFIFDTRLFEEKVNGKWLMRSMEIH | 0.735
DEDEETLHEIVEILIRWLKTGDFDAVLKNLDPDARVEINGQELHGREQWYRYIHEEWKKVKNLTIIVSRMHVQGDKVMFEGEVHFDGQRRDVSIDMRVVNGRFRTIKKEVK | 1.28
DEDEEVIRRMLETELNAVKTGDWRKFYELADPSVLVDIDGKKIHGRELWSRHLMHLRIDEIHIRIDHMDVVNGVAELHIKMEFRGTIDGVHRKQSTEVILFIKKIDGQWVIQKIEVR | 1.27
DEDEEVSRRALEKWIKNFLTGNEDSVLELADPHMRIVQGDKEYHGRHEMRDMMTDWLREIRIKTVEERHFRVIDGRVDHHVTLHGIVNGKETVRRMIVISEKVDGKWILHSLEIR | 0.907
DEDEEYAREMYRLSVEALSTGDEDTLRHLFDPDVKVSWNGKENIGMEQSLKHWHHLRIEFRRIKIEQVHIQGNKVRLNLRVDGYIRVDGKEDRVHMKSHSVYVKINGKWTMHSIEFE | 1.79
DEDEHARKFVLDRLQHAWETGDEETMEKLMDPNAKLHVNGQDFHGRDTWHKLLHDELRDMGIKHFEFELKSFESQGNKLIIDGLEISEFNGREFRHRVTLIVDKFNGRWVVQSVEIR | 1.29
DEDEHDAEIWVRLVLKSLRTGDEEFLVKMADPNVRVEVGDKKDHGRNEFRKVVHKFKGVRREIHHVDVHIQGNKAEVEIHGKLNINGVEVHIIHIIRSEKVDGQWYISEVWIIIR | 1.55
DEDEHDSEIAVKLFVRHMETGDEDVLREYADPRTKILVNGRETHGWETYVKHMQETINKLGVKHTHFELKDVEVQGEKIIAHVRIELNFENHHTTINMILIIHKVDGRWHLKKMKIK | 0.871

Sequence | protease stability score
DEDEHDVRELIELVLQVERTGNWKIFERLADPNVRLNIDGQEFHGREEALKLREDLLHHWGVDNIEVTLEDVTFQGDKVNSHFTSQFNGREFELIVIIMKIDGKWFLHQIQVHER | 1.19
DEDEHEMRELIDKWLHNLKTGDEKRTEELMDPHAKIRTVINGVEYRFHGREMLHYLVQILGVDHMEIKHVEIRVQGNKVENHVDLTLIVGDKHVRTRMILVAEKIDGRWEVKSLFFNIE | 1.96
DEDEHFAENIIRILLHLIVTGDEDQLERLIDPHVKVTIGDKEFHGRLADEILREEIRIKRVHLRDFRIVNGRAESRFKLVGNWNGVETEFTKSVYIDKINGRWIITERHIT | 1.16
DEDEHHIRTALEYLRHATETGDEELMSEMADPDVRVHVNGVELHGMESYEKWLHDVLREIRIRHVHLEDSKVIGDFVRLDLRVHTEVNGRHFRHQTILISFKYNGQWRIKSVIWR | 1.37
DEDEHHSELASRLMHETTRTGDETSFLNLADPDTRLDINGREFIGREEWVKFFHKWSKHLGAKVIDTRFNDLRVIDGRIKLDMEYIVHVGDKTMHHKMIVFALKVNGRWHLESLKFE | 0.436
DEDEHIERHLFEELIELLRTGDFRRLFELIDPHARFVVDGRDHHGMEYAMRERLRRLEEAGVKHIRIRRKDVINGRLHIHSSVNVNGVEQEERIIIEKVNGRWTITEIVID | 1.26
DEDEHKYRRAAEEFFKILRTGDEDLWKRYADPTPILLLLVGDKIDEYHGMEEVMRVLHEEWRRLGVDHMHVKRVDLQGEKVEMDFTRHIGDKTIRITIIVVVIDGRMKSVEIRTH | 0.8
DEDEHLARRLSTEVEKLMLTGDEHLIKRLLDPDARINVNGVDLHGRHHYITHLHRFLLEAGVDNVHSELTTWRVYGDYVHVHGTLHINGVRFNHHFLFEKVDGRWIIKWLDDR | 1.12
DEDEHLLEMALKYFLRHWKTGDEEMIMHLADPNVRLVVGDKKHHGREELFRFVHEMGANHIEVRDSELQGNKLILHLEVNVGDKRHDIKVVIEKIDGRWHLHSLEHR | 1.65
DEDEHLVRYLVEELIKFEQTGNEDEWNRLADPNVRIEINGVENHGREQYRKAFYEWRIHSLTVHHIRIDVQGEKALSIVDTETDGEYNGRQTRVKTNLIIHTKKVDGRWLVHSLVIKTE | 1.25
DEDEHMRRIAYRLMWEVWHTGNFEELISLVDPHARVDIDGVELHGRENFTHELHERLRRMGVETQFRLRKVESYNGVVHIHTELEITIDGRNHKIDFIFYAHKINGRWRMKSEEYR | 1.8
DEDEHMVKHAIELILKSIITGDEDLWKRLFDPDVKIEVGDKDVHGRELATEFMKLWRDHMRFTHHEITRVETYNGRAHIHGRDRVTIDGQEMTRESHLVMIKVDGRWFLHSVHIK | 1.07
DEDEHNVREFIERIMRILETGDEHDFKRMADPDVRFEIGDKLIHGMETWSEIHTDELKRIPNLKIQLRIHDVHAYNGRAHVHSHFVIEFDGKRHIIETEMFIIKINGQWHLRSIKYK | 1.46
DEDEHQSRHLAELIMRHIQTGDEEMIERLADPHARSNVNGVTDHGRNTMRWMKEFFKNLTLHIEDVRIVHIGNKVIVIIHLTVRFENREEHVIIIIISEKFDGRWWITEIEIRIK | 0.505
DEDEHRTKYWMQILIEVFKTGDWRRLWELFDPNVRLDINGKDSHGRRDMVRVFEEELRHMGINHIELRDFEIQGEKAIVHMTINVDGRRHELELIFLVVDGRVKEIRVHER | 1.88
DEDEHTIRELFKEFIIAQVTGDFERLHELLDPHARLEIDGVILHGREQWTKFMQHLLEYLGIKHVSFHLHHLDVQGEKVKLDSRVRLFFNGVHYEKRNIIIWRKFNGRWYLEESTIE | 1.48
DEDEHVLEHIVRLLIRIHLTGNFDRLRELVDPHAQIIIGDKEYHGWHMLEKWLERMGIDHIHIRHNEIRYYGEFAVLHLDTEVSIDGQSLHQIVHLDVDKVDGKWRVKNIRTDHR | 1.34
DEDEHYAREAVHLVYEILHTGDEHELMKYADPDTRIDIGDKTHIGRDRVVEAIHKMHKKLGVDHEVLTDSKVHWQGNKIEIYLKIEIHVGDKRFEMDIIIHLEKINGRWRVKSMRIDFR | 1.33
